Assays:
Assay in all cases: pull-down binding Z-score (relative to library population); higher = stronger binding
Conditions in all cases: RNA library: Library-2
[1] = test system: TO-N3-2 (biotin conjugate)
How it was run: (§1)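 Biotin-conjugated small molecule (100 pmol) on streptavidin beads was incubated with 1 μg of heat-folded Cy5- or Cy3-end-labelled RNA library in phosphate/NaCl/KCl buffer at 25 °C for 60 min. Following three washes, RNA was eluted with hot SDS and hybridised at 55.5 °C for 20 h to a DNA barcode microarray. The binding value is a Z-score computed from the library mean and standard deviation, after subtraction of beads without compound and averaging of barcoded replicate probes with the highest and lowest excluded.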

TO-N3 (biotin conjugate) = test system: TO-N3 (biotin conjugate)
How it was run: as §1

[2] = test system: TO-3-N3-2 (biotin conjugate)
How it was run: as §1

[3] = test system: TO-3-N3 (biotin conjugate)
How it was run: as §1

Row | Sequence | pull-down binding Z-score [1] | pull-down binding Z-score (TO-N3 (biotin conjugate)) | pull-down binding Z-score [2] | pull-down binding Z-score [3]
1 | UCUGUACCGUCUGCGGUAUGUGGA [DMSMaPseq_invitro_SARS-CoV-2_Motif_240] | 0.111 | -0.694 | -0.475 | -0.562
2 | CUUUACCAACCACCACAAACCUCUAUCACCUCAGCUGUUUUGCAGAGUGGUUUUAGAAAAAUGGCAUUCCCAUCUGGUAAAG | -0.0806 | -0.0807 | 0.13 | -0.0485
3 | GCGCUGCCAGAAACUGGCCCAGCGC [bulge-CC] | 0.352 | -0.282 | -0.288 | -0.161
4 | GUGUUAUAACAC | -1.12 | -0.404 | -0.531 | -0.176
5 | GAGGUAAGUAUGAUACUUACCUG [U1snRNP5ss-8] | -1.02 | -0.957 | -0.377 | -0.664
6 | CCCAAUGUUGUUAAACCACACGAAAAGGG [IAV_invivo_PA_3_Motif_15+IAV_invivo_PA_3_Motif_15] | -0.323 | 0.504 | 0.104 | 0.621
7 | GACCAGAAAUCAGCCCGAAUGGUU [IAV_invivo_PB1_2_Motif_17+IAV_invivo_PB1_2_Motif_17] | -0.162 | -0.464 | -0.175 | -0.477
8 | GGUACAUUUACUUGUGCU [SHAPE_invivo_SARS-CoV-2_Motif_118] | -0.222 | 0.678 | -0.344 | 0.677
9 | CCGGUAAGGACGAUACUUACCUG [U1snRNP5ss-23] | -0.181 | 0.0948 | -0.205 | 0.363
10 | CACAUCUAGGUUUCGUCCGGGUGUG [SARS-CoV-2-Conserved-Structured-16_Interval-158-277_Motif_2] | -0.319 | 0.254 | -0.459 | 0.468
11 | GCUAAAGAUACUACUGAAGCCUUUGAAAAAAUGGUUUCACUACUUUCUGUUUUGC [SHAPE_invitro_SARS-CoV-2_Motif_217] | -0.245 | 0.166 | 0.0624 | 0.0938
12 | UGUAAGCACAAGCUGAUGAGUACGAACUUAUGUACUCAUUCGUUUCGGAAGAGACAGGUACGUUAAUAGUUAAUAGCGUACUUCUUUUUCUUGCUUUCG [DMSMaPseq_invitro_SARS-CoV-2_Multi_80_ComplexLevel_1] | -0.373 | -0.883 | -0.529 | -1.03
13 | GUUAAAAUGUUUGAUGCUUACGUUAAUACGUUUUCAUCAACUUUUAAC | -1.35 | -1.54 | -0.247 | -1.02
14 | CAGAGUCACAUGUUGACACUG | -0.894 | -0.0159 | -0.263 | 0.214
15 | UGUUGUAAAUAAGGGACACUUUGAUGGACAACA [DMSMaPseq_invitro_SARS-CoV-2_Motif_348] | 0.325 | -0.488 | -0.178 | -0.73
16 | GAAGGUCUUAAUGACAACCUUC [SHAPE_invitro_SARS-CoV-2_Motif_33] | -1.39 | -1.28 | -0.502 | -0.78
17 | CCUUCACUGUAGAAAAAGG [SHAPE_invivo_SARS-CoV-2_Motif_423] | -0.52 | -0.772 | -0.29 | -0.468
18 | GACAUCACUUUCUUAAAGAAAGAUGCUCCAUAUAUAGUGGGUGAUGUU [DMSMaPseq_invitro_SARS-CoV-2_Multi_15_ComplexLevel_1] | -0.466 | -0.173 | -0.0858 | -0.0756
19 | CUAUACAUUCUUUAAGAGUUUGUGUAG | -1.28 | -0.583 | -0.294 | -0.365
20 | AAGGUAAAACCAACAGUGGUUGUUAAUGCAGCCAAUGUUUACCUU [DMSMaPseq_invitro_SARS-CoV-2_Motif_60] | -0.952 | -0.792 | -0.217 | -0.572
21 | CAUUUGUAGUUUCAACUGGAUACCACUUCAGAGAGCUAGGUGUUGUACAUAAUCAGGAUGUAAACUUACAUAGCUCUAGACUUAGUUUUAAGGAAUUACUUGUG | 0.127 | -0.109 | -0.292 | -0.927
22 | GAUGUUCUUGUUAACAACUAAACGAACAAUGUUUGUUUUUCUUGUUUUAUUGCCACUAGUCUCUAGUCAGUGUGUUAAUCUUACAACCAGAACUC [DMSMaPseq_invitro_SARS-CoV-2_Multi_63_ComplexLevel_1] | -0.457 | 0.534 | 0.256 | 0.637
23 | GGUGUUGUUGGAGAAGGUUCCGAAGGUCUUAAUGACAACCUUCUUGAAAUACUCC | 0.062 | 0.261 | 0.0401 | 0.245
24 | CUGGAAUUGCCGUUUUAG [SHAPE_invivo_SARS-CoV-2_Motif_210] | -0.115 | -0.0237 | -0.112 | 0.0793
25 | GUGUAUGCUGCUGACCCUGCUAUGCACGCUGCUUCUGGUAAUCUAUUACUAGAUAAACGCACUACGUGCUUUUCAGUAGCUGCAC | 0.698 | 0.772 | 0.434 | 0.39
26 | GUAAUGAUCCAUUUUUGGGUGUUUAUUAC [DMSMaPseq_invitro_SARS-CoV-2_Motif_387] | -0.998 | -0.308 | -0.129 | -0.1

Row | Sequence | pull-down binding Z-score [1] | pull-down binding Z-score (TO-N3 (biotin conjugate)) | pull-down binding Z-score [2] | pull-down binding Z-score [3]
27 | UGUAUGAAAAUGCCUUUUUACCUUUUGCUAUGGGUAUUAUUGCUAUGUCUGCUUUUGCAAUGAUGUUUGUCAAACAUAAGCAUGCA | -0.447 | -0.547 | 0.0997 | -0.713
28 | GCGCUGCCAGAAACUGGCAGCGC [full-UA] | -0.943 | -0.599 | -0.274 | -0.337
29 | CUUCAUUAAAAGAAUUACUGCAAAAUGGUAUGAAUGGACGUACCAUAUUGGGUAGUGCUUUAUUAGAAG | -0.219 | -0.621 | -0.0236 | -0.675
30 | UGGAUGUAAUUAUCUUGGCAAACCACGCGAACAAAUAGAUGGUUAUGUCAUGCAUGCA | 0.157 | -0.682 | -0.0277 | -0.833
31 | UCCUAUUUCUGAACAUGACUACCAGAUUGGUGGUUAUACUGAAAAAUGGGA | -0.953 | 0.012 | -0.375 | 0.1
32 | GGUGGCAAACCUUGUAUCAAAGUAGCCACU [SHAPE_invitro_SARS-CoV-2_Motif_216] | -0.605 | -0.798 | -0.373 | -0.569
33 | AUAUAACUUCUAAAGAAACUUUGUAU | -1.1 | -1.28 | -0.347 | -0.911
34 | CUUUUAUGUCUAUGCUAAUGGAGGUAAAGG [SHAPE_invivo_SARS-CoV-2_Motif_154] | -0.771 | -0.68 | -0.487 | -0.524
35 | UCAGCUGGUUUUCCAUUUAAUAAAUGGGGUAAGGCUAGA | -0.851 | -0.355 | -0.448 | -0.104
36 | UAGCGUGCCUUUGUAAGCACAAGCUG | 0.342 | 0.57 | 0.0842 | 0.532
37 | GUGGUGAGACACUUGGUGUCCUUGUCCCUCAUGUGGGCGAAAUACCAGUGGCUUACCGC | 0.812 | 0.798 | -0.0757 | 0.769
38 | AAUCAUACAUCACCAGAUGUUGAUU [SHAPE_invitro_SARS-CoV-2_Motif_454] | -0.903 | -0.814 | -0.477 | -0.503
39 | GCCCUUAUAGGGC [IAV_invivo_NA_6_Motif_5+IAV_invivo_NA_6_Motif_5] | -1.22 | -0.247 | -0.38 | 0.164
40 | UGUGCUUGUGAAAUUGUCGGUGGACAAAUUGUCACCUGUGCA | -0.816 | -0.833 | -0.27 | -0.722
41 | GCGCUGCCAGAAACUGGCCCCAGCGC [bulge-CCC] | 0.6 | -0.283 | -0.182 | -0.229
42 | GCGCUUCAGCGUUCUUCGGAAUGUCGCGC | -0.654 | -0.787 | -0.453 | -0.429
43 | GGCGAAUCUGGCGCC [IAV_invivo_NP_5_Motif_7+IAV_invivo_NP_5_Motif_7] | 0.288 | 0.493 | -0.231 | 0.577
44 | CGCAGGGAAUGGAUAAUCUUGCCUGCG | -0.759 | -0.607 | -0.153 | -0.486
45 | AGUUGCUUACUCUAAUAACU [DMSMaPseq_invitro_SARS-CoV-2_Motif_421] | -0.822 | -0.387 | -0.314 | -0.129
46 | UGGUAUUCUUGCUA | -0.632 | -0.551 | -0.339 | -0.297
47 | CCCGGAAAUAGCAGGAAGACCCAAAGUAAGAGAUCAAGCUGGG [IAV_invivo_HA_4_Motif_10+IAV_invivo_HA_4_Motif_10] | 0.433 | -0.157 | 0.505 | -0.309
48 | CUGGACUCUAAAUAGAAACCAACCUGCUGCAACAGCAUUGGCCAACACAAUAGAAGUGUUCAGAUCAAAUGGCCUCACGGCCAAUGAGUCUGG | 0.269 | -0.231 | -0.486 | -0.791
49 | GGUAAUUAUACAGUUUCCUGUUUACCUUUUACAAUUAAUUGCC [SHAPE_invitro_SARS-CoV-2_Motif_513] | -1.1 | -1.04 | 0.0742 | -0.718
50 | GUAAAUUUACUUAC [DMSMaPseq_invitro_SARS-CoV-2_Motif_170] | -0.635 | 0.563 | -0.105 | 0.655
51 | GCUAGUCUUAAUGGAGUCACAUUAAUUGGAGAAGC | 0.337 | 0.474 | 0.112 | 0.378
